Data: patent US12702694B2, “Methods for identification, assessment, prevention, and treatment of metabolic disorders using SLIT2” (Dana-Farber Cancer Institute, Inc., priority 2015, dated 2026)

B1: Slit2-C: ~50 kDa C-terminal cleavage fragment of Slit2 beginning at TSP (SEQ ID NO: 22); adenovirally expressed or purified FLAG-tagged protein (protein, listed as Homo sapiens)
chain: TSPCDNFDCQNGAQCIIRINEPICQCLPGYLGEKCEKLVSVNFVNKESYLQIPSAKVRPQTNITLQIATDEDSGILLYKGDKDHIAVELYRGRVRASYDTGSHPASAIYSVETINDGNFHIVELLTLDSSLSLSVDGGSPKVITNLSKQSTLNFDSPLYVGGMPGKNNVASLRQAPGQNGTSFHGCIRNLYINSELQDFRKMPMQTGILPGCEPCHKKVCAHGMCQPSSQSGFTCECEEGWMGPLCDQRTNDPCLGNKCVHGTCLPINAFSYSCKCLEGHGGVLCDEEEDLFNPCQMIKCKHGKCRLSGVGQPYCECNSGFTGDSCDREISCRGERIRDYYQKQQGYAACQTTKKVSRLECRGGCAGGQCCGPLRSKRRKYSFECTDGSSFVDEVEKVVKCGCARCAS
modifications: FLAG tag
notes: adenovirally expressed or purified FLAG-tagged protein
B2: Slit2: Slit family secreted extracellular matrix protein, full length ~180 kDa; used as commercial recombinant protein or adenovirally expressed (protein)
chain: QACPAQCSCSGSTVDCHGLALRSVPRNIPRNTERLDLNGNNITRITKIDFAGLRHLRVLQLMENRISTIERGAFQDLKELERLRLNRNNLQLFPELLFLGTAKLYRLDLSENQIQAIPRKAFRGAVDIKNLQLDYNQISCIEDGAFRALRDLEVLTLNNNNITRLSVASFNHMPKLRTFRLHSNNLYCDCHLAWLSDWLRQRPRVGLYTQCMGPSHLRGHNVAEVQKREFVCSGHQSFMAPSCSVLHCPAACTCSNNIVDCRGKGLTEIPTNLPETITEIRLEQNSIRVIPPGAFSPYKKLRRLDLSNNQISELAPDAFQGLRSLNSLVLYGNKITELPKSLFEGLFSLQLLLLNANKINCLRVDAFQDLHNLNLLSLYDNKLQTVAKGTFSALRAIQTMHLAQNPFICDCHLKWLADYLHTNPIETSGARCTSPRRLANKRIGQIKSKKFRCSGTEDYRSKLSGDCFADLACPEKCRCEGTTVDCSNQRLNKIPDHIPQYTAELRLNNNEFTVLEATGIFKKLPQLRKINFSNNKITDIEEGAFEGASGVNEILLTSNRLENVQHKMFKGLESLKTLMLRSNRISCVGNDSFIGLGSVRLLSLYDNQITTVAPGAFDSLHSLSTLNLLANPFNCNCHLAWLGEWLRRKRIVTGNPRCQKPYFLKEIPIQDVAIQDFTCDDGNDDNSCSPLSRCPSECTCLDTVVRCSNKGLKVLPKGIPKDVTELYLDGNQFTLVPKELSNYKHLTLIDLSNNRISTLSNQSFSNMTQLLTLILSYNRLRCIPPRTFDGLKSLRLLSLHGNDISVVPEGAFNDLSALSHLAIGANPLYCDCNMQWLSDWVKSEYKEPGIARCAGPGEMADKLLLTTPSKKFTCQGPVDITIQAKCNPCLSNPCKNDGTCNNDPVDFYRCTCPYGFKGQDCDVPIHACISNPCKHGGTCHLKEGENAGFWCTCADGFEGENCEVNIDDCEDNDCENNSTCVDGINNYTCLCPPEYTGELCEEKLDFCAQDLNPCQHDSKCILTPKGFKCDCTPGYIGEHCDIDFDDCQDNKCKNGAHCTDAVNGYTCVCPEGYSGLFCEFSPPMVLPRTSPCDNFDCQNGAQCIIRINEPICQCLPGYLGEKCEKLVSVNFVNKESYLQIPSAKVRPQTNITLQIATDEDSGILLYKGDKDHIAVELYRGRVRASYDTGSHPASAIYSVETINDGNFHIVELLTLDSSLSLSVDGGSPKVITNLSKQSTLNFDSPLYVGGMPGKNNVASLRQAPGQNGTSFHGCIRNLYINSELQDFRKMPMQTGILPGCEPCHKKVCAHGMCQPSSQSGFTCECEEGWMGPLCDQRTNDPCLGNKCVHGTCLPINAFSYSCKCLEGHGGVLCDEEEDLFNPCQMIKCKHGKCRLSGVGQPYCECNSGFTGDSCDREISCRGERIRDYYQKQQGYAACQTTKKVSRLECRGGCAGGQCCGPLRSKRRKYSFECTDGSSFVDEVEKVVKCGCARCAS

Key:
diet-induced obese mice = assay: Intraperitoneal glucose tolerance test; type: in vivo, Mus musculus
Method: Glucose tolerance tests were performed on mice 7 days post-injection with adenovirus. […] Animals were fasted overnight and then received intraperitoneal glucose at […]. Energy expenditure was analyzed using a Comprehensive Lab Animal Monitoring System (Columbus Instruments). Cold exposure and thermoneutrality experiments were performed in Balb/c mice at 4° C. or 30° C., respectively. Total levels of cholesterol, free fatty acids, triglycerides and insulin were measured at the Core Facility at Joslin Diabetes Center.

primary inguinal cells = assay: Thermogenic gene expression in primary inguinal cells with adenoviral overexpression; type: cell-based, Mus musculus
Method: Inguinal and brown stromal-vascular fractions were obtained from 6 weeks old male or newborn mice (postnatal days 5-10) for white and brown fat cultures, respectively. Inguinal fat tissue was dissected and washed with PBS, minced and digested for 45 min at 37° C. in PBS containing 10 mM CaCl2), 2.4 U/ml dispase II (Roche) and 10 mg/ml collagenase D (Roche). Brown fat tissue was dissected, washed with PBS, minced and digested for 45 min at 37° C. in PBS containing 1.3 mM CaCl2, 123 mM NaCl, 5 mM KCl, 5.0 mM glucose, 100 mM HEPES, 4% BSA and 1.5 mg/ml collagenase B (Roche). Digested tissue was filtered through a 100-μm cell strainer and centrifuged at 600 g for 10 min. […] For adenoviral overexpression of Slit2-FL, Slit2-N, Slit2-C, LacZ or Cre, virus was added at day 2 of differentiation at a titer of 10^8 particles/well and cells were analyzed at day 6-7. […]
(§1) RNA was extracted from cultured cells or frozen tissue samples using TRIzol®, purified with QIAGEN RNeasy® minicolumns. Normalized RNA was reversed transcribed using a high-capacity cDNA reverse transcription lot (Applied Biosystems) and cDNA was analyzed by qRT-CPR. Relative mRNA levels were calculated using the comparative CT method and normalized to cyclophilin […]. […]

[1] = tested on: primary inguinal adipocytes; assay: Thermogenic gene expression (qRT-PCR) in primary adipocytes treated with recombinant protein; type: cell-based, Mus musculus
Method: Inguinal and brown stromal-vascular fractions were obtained from 6 weeks old male or newborn mice (postnatal days 5-10) for white and brown fat cultures, respectively. Inguinal fat tissue was dissected and washed with PBS, minced and digested for 45 min at 37° C. in PBS containing 10 mM CaCl2), 2.4 U/ml dispase II (Roche) and 10 mg/ml collagenase D (Roche). Brown fat tissue was dissected, washed with PBS, minced and digested for 45 min at 37° C. in PBS containing 1.3 mM CaCl2, 123 mM NaCl, 5 mM KCl, 5.0 mM glucose, 100 mM HEPES, 4% BSA and 1.5 mg/ml collagenase B (Roche). Digested tissue was filtered through a 100-μm cell strainer and centrifuged at 600 g for 10 min. Pelleted inguinal stromal-vascular cells were grown to confluence and induced to differentiate by an adipogenic cocktail containing 0.02 μM insulin, 1 μM rosiglitazone, 5 μM dexamethasone, 0.5 μM isobuthylmethylxanthine. For differentiation of brown fat cells, 1 nM T3 and 125 μM indomethacin were also added to the adipogenic cocktail. Two days after induction, cells were maintained in adipocyte culture medium containing 0.02 μM insulin and 1 μM rosiglitazone. Where indicated, cells were treated with forskolin (10 μM), norepinephrine (100 nM) for 4 h or with recombinant proteins (1 μg/ml, R&D systems) for 24 h or for the indicated times. For adenoviral overexpression of Slit2-FL, Slit2-N, Slit2-C, LacZ or Cre, virus was added at day 2 of differentiation at a titer of 10^8 particles/well and cells were analyzed at day 6-7. […]
as §1

PKA signaling pathway = assay: Western blotting of PKA and related signaling in primary inguinal cells; type: cell-based, Mus musculus; settings: for PKA signaling after treatment with conditioned media: serum-free conditioned media from expressing cells, acute treatment (30 min), FIG. 10G
Method: Inguinal and brown stromal-vascular fractions were obtained from 6 weeks old male or newborn mice (postnatal days 5-10) for white and brown fat cultures, respectively. Inguinal fat tissue was dissected and washed with PBS, minced and digested for 45 min at 37° C. in PBS containing 10 mM CaCl2), 2.4 U/ml dispase II (Roche) and 10 mg/ml collagenase D (Roche). Brown fat tissue was dissected, washed with PBS, minced and digested for 45 min at 37° C. in PBS containing 1.3 mM CaCl2, 123 mM NaCl, 5 mM KCl, 5.0 mM glucose, 100 mM HEPES, 4% BSA and 1.5 mg/ml collagenase B (Roche). Digested tissue was filtered through a 100-μm cell strainer and centrifuged at 600 g for 10 min. Pelleted inguinal stromal-vascular cells were grown to confluence and induced to differentiate by an adipogenic cocktail containing 0.02 μM insulin, 1 μM rosiglitazone, 5 μM dexamethasone, 0.5 μM isobuthylmethylxanthine. For differentiation of brown fat cells, 1 nM T3 and 125 μM indomethacin were also added to the adipogenic cocktail. Two days after induction, cells were maintained in adipocyte culture medium containing 0.02 μM insulin and 1 μM rosiglitazone. Where indicated, cells were treated with forskolin (10 μM), norepinephrine (100 nM) for 4 h or with recombinant proteins (1 μg/ml, R&D systems) for 24 h or for the indicated times. For adenoviral overexpression of Slit2-FL, Slit2-N, Slit2-C, LacZ or Cre, virus was added at day 2 of differentiation at a titer of 10^8 particles/well and cells were analyzed at day 6-7. Where indicated, cells were treated with the drugs Erlotinib (SelleckChem), Lapatinib (Santa Cruz), PD0325901 (Santa Cruz), Propranolol (SelleckChem), H89 dihydrochloride (Santa Cruz), SQ-22536 (Santa Cruz) for indicated time points and concentrations.
For Western blotting, homogenized tissues, whole cell lysates, or concentrated serum free conditioned medium were lysed in RIPA buffer containing protease inhibitor cocktail (Thermo Scientific) and phosphatase inhibitor cocktail (Thermo Scientific), separated by SDS-PAGE and transferred to Immobilon-P® membranes (Millipore). For Western blotting of plasma samples, 1 μl of plasma was prepared containing 2× sample buffer (Invitrogen) with reducing agent, boiled and analyzed using Western blot against V5, FLAG, or the indicated antibody. V5-antibody was from Life Technologies and anti-Flag M2-HRP (A8592) from Sigma Aldrich. Anti-Slit2 antibody used was from Abcam (Abcam ab134166). Phospho-PKA Substrate, phospho-PKC Substrate, phospho-ERK1/2, total ERK, phospho-AKT, total AKT, phospho-AMPK, total AMPK, phospho-ATGL, ATGL, phospho-EGFR and EGFR were from Cell Signaling. Protein array was from R&D Systems (Proteome Profiler Mouse Phospho-RTK Array Kit, ARY014). Silverstain (SilverQuest™ Silver Staining Kit, LC6070) was purchased from Thermo Fisher.

UCP1 = UCP1 immunohistochemistry on adipose tissue sections; type: in vivo, Mus musculus; settings: day 7
Method: Tissues were fixed in 4% paraformaldehyde. Paraffin embedding and sectioning were done by the Dana-Farber/Harvard Cancer Center Research Pathology core facility. For UCP1 immunohistochemistry, slides were deparaffinized in xylene, hydrated in descending 95%, 80% and 70% ethanol, and rinsed in water before heat-mediated antigen retrieval in 10 mM, pH 6.0 sodium citrate buffer. Quenching of endogenous peroxidases was performed using peroxidase quenching solution (Invitrogen). Slides were blocked in 10% goat serum and incubated with rabbit polyclonal UCP1 antibody (Abcam, ab10983) at […] in PBS-T/1% BSA overnight at 4° C. Slides were washed in PBS-T and incubated with 1:500 donkey anti-rabbit IgG HRP-linked antibody (GE healthcare) before developing using a SuperPicture™ 3rd Gen IHC Detection Kit (Invitrogen). Hematoxylin was used as counterstain. […] Digital images were captured with a Nikon Digital Sight DS-Fil color camera and NIS-Elements acquisition software.

[2] = Slit2-C-transduced cells, FIG. 10B

Molecule | glucose tolerance (diet-induced obese mice; diet-induced obese mice, circulating Slit2-C, day 7, FIG. 8G) | thermogenic gene expression in primary inguinal cells (primary inguinal cells; Slit2-C vs LacZ virus, day 7, FIG. 6A) | changes in thermogenic gene expression in white and brown adipocytes in culture ([1]; 2 h after purified protein treatment, FIG. 10N) | activation of protein kinase C (PKC) substrates and ATGL S406 (PKA signaling pathway; FIG. 10E) | protein levels of UCP1 (PKA signaling pathway; Slit2-C overexpression, FIGS. 10B, 10F) | phosphorylation of hormone sensitive lipase (HSL S660) (PKA signaling pathway; [2]) | total HSL (PKA signaling pathway; [2]) | phosphorylation of PKA substrates (PKA signaling pathway; Slit2-C-transduced vs lacZ-transduced cells, FIG. 10B) | PKA signaling after treatment with conditioned media (PKA signaling pathway) | subset of PKA substrate phosphorylations after purified protein treatment (PKA signaling pathway; time-dependent and dose-dependent, FIGS. 10M, 11F) | UCP1 staining in inguinal white fat depots (UCP1; Slit2-C vs control animals, FIGS. 6E, 6G) | glucose tolerance, compared with Slit2-C experiments (diet-induced obese mice; full-length Slit2 adenovirus, FIG. 9F) | increase in Ucp1 mRNA (primary inguinal cells; adenovirus on day 2 of differentiation, analyzed day 7, vs lacZ, FIG. 3D) | expression of other genes associated with thermogenesis, including Dio2 and Cidea ([1]; recombinant Slit2 protein 1 μg/ml, 24 hours, FIG. 3A) | increase in Ucp1 mRNA ([1]; recombinant Slit2 protein 1 μg/ml, 24 hours, fully differentiated primary inguinal adipocytes, FIG. 3A) | iWAT UCP1 protein (UCP1; histological sections, i.v. Slit2 adenovirus)
B1 | dramatically improve | comparable to full-length Slit2 | induced | minimal | increased | induced | unaffected | robust phosphorylation | increased | increased | multiple pockets of UCP1-positive cells | – | – | – | – | –
B2 | – | – | – | – | – | – | – | – | increased | – | – | comparable results | 8 fold | large increases | ~ 3 fold | increased
